Test results from paper PMC8496131, “Accessing Chemo- and Regioselective Benzylic and Aromatic Oxidations by Protein Engineering of an Unspecific Peroxygenase” (ACS Catalysis, 2021).
Positions count from the first letter of the chain named. Names and notes keep the numbering of the source.

B1: MthUPO (Thermothelomyces thermophilus ATCC 42464) (protein)
chain: AGFDTWSPPGPYDVRAPCPMLNTLANHGFLPHDGKDITREQTENALFEALHINKTLASFLFDFALTTNPKNTSTFSLNDLGNHNILEHDASLSRADAYFGNVLQFNQTVFDETKTYWEGDTIDLRMAAKARLGRIKTSQATNPTYSMSELGDAFTYGESAAYVVVLGDKESRTVKRSWVEWFFEHEQLPQHLGWKRPAASFEEEDLNSSMEEIEKYTKELEGSNSTSGSQKHRRRLPRRRAHFGF
notes: secreted from S. cerevisiae, purified; 245 AA plus C-terminal TwinStrep-GFP11 tag; heme-thiolate
B2: MthUPO (Thermothelomyces thermophilus ATCC 42464; L76F) (protein)
chain: B1 chain with L60F
notes: as for B1
B3: MthUPO (Thermothelomyces thermophilus ATCC 42464; F75Q/L76F/S175G) (protein)
chain: B1 chain with F59Q, L60F, S159G
notes: as for B1
B4: MthUPO (Thermothelomyces thermophilus ATCC 42464; A177F/L76F/S175G) (protein)
chain: B1 chain with L60F, S159G, A161F
notes: as for B1
B5: MthUPO (Thermothelomyces thermophilus ATCC 42464; F170A/F75Q/L76M/S175G) (protein)
chain: B1 chain with F59Q, L60M, F154A, S159G
notes: as for B1

Substrate: O=[N+]([O-])c1ccc2c(c1)OCO2
Assay: purified protein
Assay type: biochemical, Thermothelomyces thermophilus
Conditions: H2O2 as saturating co-substrate, standard deviation <18%

| Protein | Km (20 nM enzyme) | kcat (20 nM enzyme) | kcat/Km (20 nM enzyme) | Km (5 nM enzyme) | kcat (5 nM enzyme) | kcat/Km (5 nM enzyme) |
| --- | --- | --- | --- | --- | --- | --- |
| B1 | 386 µM | 7.1 s⁻¹ | 19000 M⁻¹ s⁻¹ | – | – | – |
| B2 | – | – | – | 110 µM | 2.9 s⁻¹ | 27000 M⁻¹ s⁻¹ |
| B3 | 303 µM | 47 s⁻¹ | 160000 M⁻¹ s⁻¹ | – | – | – |
| B4 | 422 µM | 132 s⁻¹ | 310000 M⁻¹ s⁻¹ | – | – | – |
| B5 | 290 µM | 59.4 s⁻¹ | 210000 M⁻¹ s⁻¹ | – | – | – |
